Positions of bridges follow the written chain, without caps; N, C: chain ends. Non-standard residues stand in square brackets, D forms with d. Groups on a side chain read outwards from the residue. *: point of attachment. PEG12 = NCCOCCOCCOCCOCCOCCOCCOCCOCCOCCOCCOCCOCCC(=O)O; Dip = N[C@H](C(=O)O)C(c1ccccc1)c1ccccc1; Palmitoyl = CCCCCCCCCCCCCCCC(=O)*; β3hF = N[C@H](CC(=O)O)Cc1ccccc1; Isovaleryl = CC(C)CC(=O)*; Dap = NC[C@H](N)C(=O)O
Key:
[1] = target: human ferroportin (SLC40A1) fused in frame with GFP, stably expressed in HEK293 cells (human) (UniProt Q9NP59); experiment: cell-based or functional assay
human ferroportin = target: T1, human ferroportin (Homo sapiens, UniProt Q9NP59); experiment: FPN activity assay: internalization/degradation of ferroportin-GFP in stably transfected HEK293 cells (decrease in GFP fluorescence); assay type: cell-based; conditions: Table 2B; HEK293 cells expressing human ferroportin-GFP, at least 18 hours incubation; read-out: FPN EC50
T1 construct: expressed in transfected cells
T1 sequence (Q9NP59 1-571): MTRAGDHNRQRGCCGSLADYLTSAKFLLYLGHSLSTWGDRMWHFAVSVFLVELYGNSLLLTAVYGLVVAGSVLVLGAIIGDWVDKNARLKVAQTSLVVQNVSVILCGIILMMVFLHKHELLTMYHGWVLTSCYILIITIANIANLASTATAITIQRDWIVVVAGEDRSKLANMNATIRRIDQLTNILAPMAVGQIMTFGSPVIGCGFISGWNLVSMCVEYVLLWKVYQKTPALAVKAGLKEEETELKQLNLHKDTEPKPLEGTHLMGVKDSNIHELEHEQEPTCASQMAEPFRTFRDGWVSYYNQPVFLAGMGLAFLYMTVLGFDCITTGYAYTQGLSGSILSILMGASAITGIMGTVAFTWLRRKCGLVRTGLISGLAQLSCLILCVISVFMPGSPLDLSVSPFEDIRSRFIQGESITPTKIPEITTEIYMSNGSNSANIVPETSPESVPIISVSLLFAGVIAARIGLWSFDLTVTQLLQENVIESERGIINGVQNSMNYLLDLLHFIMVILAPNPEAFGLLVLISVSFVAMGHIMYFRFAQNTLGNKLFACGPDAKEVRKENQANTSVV
Experimental: Following internalization, the ferroportin protein is degraded.
A retro inverse peptide is a peptide with a reversed sequence in all D amino acids. An example is that Hy-Glu-Thr-His-NH2 becomes Hy-DHis-DThr-DGlu-NH2. The EC50 of these reference compounds for ferroportin internalization/degradation was determined according to the FPN activity assay described above. These peptides served as control standards.
These values were determined as described herein.

[2] = target: T2, ferroportin (endogenously expressed in T47D cells) (Homo sapiens, UniProt Q9NP59); experiment: T47D cell-based ferroportin internalization assay in presence of 0.5% mouse serum albumin (AF647-conjugated detection peptide, flow cytometry); conditions: read-out: IC50: T47D Internalization MSA
T2 construct: is a human breast carcinoma adherent cell line which endogenously expresses ferroportin; host or cells: T47D
T2 sequence (Q9NP59 1-571): T1 sequence (Q9NP59 1-571)
Experimental: The potency of the peptides in causing ferroportin internalization was evaluated in a T47D cell-based assay. […] In this internalization assay, the potency of the test peptides was evaluated in the presence of serum albumin, which is the main protein component in the blood. T47D cells were maintained in RPMI media (containing required amount of fetal bovine serum) and regularly sub-cultured. […] The test peptide dilution series were allowed to incubate at room temperature for 30 min. Then the media was aspirated from the 96-well cell plate and test peptide dilution series were added. After 1 hr incubation, the media with test peptides was aspirated out and AF647-conjugated detection peptide was added at fixed concentration of 200 nM. […] The cells were washed again after a 2 hr incubation in preparation for flow cytometry analysis. The Median Fluorescence Intensity (MFI) of the AF647-positive population was measured (after removing dead cells and non-singlets from the analysis). The MFI values were used to generate a dose-response curve and obtain IC50 potencies for the test peptides.

LAD2 cells = assay type: cell-based, human
Procedure, shortened: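 Compound serial dilutions were added to LAD2 human mast cells for 30 min. β-Hexosaminidase in supernatants and cell lysates was quantified with the fluorogenic substrate 4-methylumbelliferyl-N-acetyl-b-D-glucosaminide. Dose-response curves plotted % β-hexosaminidase release against peptide concentration.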

[3] = Stability in simulated intestinal fluid (FaSSIF with 1% pancreatin); assay type: in vitro ADME; conditions: pig, pH 6.5, Table 2A, 20 μM in FaSSIF with 1% pancreatin, 37° C., percent in brackets not explained, read-out: SIF Half life
Experimental: FaSSIF was prepared by dissolving 1.2 g porcine pancreatin (Chem-supply, PL378) in 100 mL Blank FaSSIF and stirred at room temperature for 30 minutes. The solution was filtered through 0.45 μm membrane and aliquot and stored at −20° C.
Experimental compounds of interest (20 μM) were incubated with pre-warmed FaSSIF (1% pancreatin in final incubation mixture) at 37° C. Aliquots were taken at various time points up to 24 hours (e.g. 0, 0.25, 1, 3, 6 and 24 hr), and immediately quenched with 4 volumes of organic solvent (acetonitrile/methanol (1:1) and 0.1% formic acid, containing 1 μM internal standard). Quenched samples were stored at 4° C. until the end of the experiment and centrifuged at 4,000 rpm for 10 minutes. The supernatant was diluted 1:1 with deionized water and analyzed using LC-MS. Percentage remaining at each time point was calculated based on the peak area ratio (analyte over internal standard) relative to the initial level at time zero. Half-lives were calculated by fitting to a first-order exponential decay equation using GraphPad.
Compounds of interest (at concentration of 20 μM) were mixed with pre-warmed FaSSIF (1% pancreatin in final working solution). The solution mixture was aliquoted and incubated at 37° C. The number of aliquots required was equivalent to the number of time points (e.g. 0, 0.25, 1, 3, 6 and 24 hr). […]

[4] = target: T3, human ferroportin (SLC40A1) fused in frame with GFP, stably expressed in HEK293 cells (human, UniProt Q9NP59 1-571); experiment: cell-based or functional assay
T3 sequence (looked up): T1 sequence (Q9NP59 1-571)

[5] = target: T3, human ferroportin (SLC40A1) fused in …; experiment: cell-based or functional assay; remark: listed apart in the source

In the case of Hepcidin (peptide), the Potency EC50 [1] is reported as 34 nM.

With `CC[C@H](C)[C@@H]1NC(=O)[C@@H](NC(=O)[C@@H]2CCCN2C(=O)[C@@H](NC(=O)[C@H](Cc2cnc[nH]2)NC(=O)[C@@H](NC(=O)[C@H](CCC(=O)O)NC(=O)CC(C)C)[C@@H](C)O)C(c2ccccc2)c2ccccc2)CSSC[C@@H](C(N)=O)NC(=O)[C@@H](CCCCN)NC(=O)C[C@H](Cc2ccccc2)NC(=O)[C@H](CCCCNC(=O)COCCOCCNC(=O)COCCOCCNC(=O)[C@H](CN)NC(=O)CCCCCCCCCCCCCCCCC(=O)O)NC1=O` [Compound 278, Isovaleric Acid-E-T-H-[Dpa]-P—C—I-[Lys(1PEG2_1PEG2_Dap_C18_Diacid)]-[bhPhe]-[(D)Lys]-C—NH2] the DC50 (human ferroportin) was 4.3 nM, the IC50 [2] was 14.2 nM and the EC50 (LAD2 cells) was 15500 nM.

Work on `CC[C@H](C)[C@@H]1NC(=O)[C@@H](NC(=O)[C@@H]2CCCN2C(=O)[C@@H](NC(=O)[C@H](Cc2cnc[nH]2)NC(=O)[C@@H](NC(=O)[C@H](CCC(=O)OC)NC(=O)CC(C)C)[C@@H](C)O)C(c2ccccc2)c2ccccc2)CSSC[C@@H](C(N)=O)NC(=O)[C@@H](CCCCN)NC(=O)C[C@H](Cc2ccccc2)NC(=O)[C@H](CCCCNC(=O)COCCOCCNC(=O)COCCOCCNC(=O)[C@H](CN)NC(=O)CCCCCCCCCCCCCCCCC(=O)O)NC1=O` [Compound 279, Isovaleric Acid-[Glu_OMe]-T-H-[Dpa]-P—C—I-[Lys(1PEG2_1PEG2_Dap_C18_Diacid)]-[bhPhe]-[(D)Lys]-C—NH2] yielded an IC50 [2] of 15.4 nM and an EC50 (LAD2 cells) of 8000 nM.

Work on Mini-Hepcidin 1-9 (peptide) yielded a Potency EC50 [1] of 712 nM.

RI-Mini Hepcidin (peptide) gave a Potency EC50 (nM) [1] of over 10000 nM.

With `CC[C@H](C)[C@@H]1NC(=O)[C@@H](NC(=O)[C@@H]2CCCN2C(=O)[C@@H](NC(=O)[C@H](Cc2cnc[nH]2)NC(=O)[C@@H](NC(=O)[C@H](CCC(=O)O)NC(=O)CC(C)C)C(C)O)C(c2ccccc2)c2ccccc2)CSSC[C@@H](C(N)=O)NC(=O)[C@@H](CCCCN)NC(=O)C[C@H](Cc2ccccc2)NC(=O)[C@H](CCCCNC(=O)COCCOCCNC(=O)COCCOCCNC(=O)CCCCCNC(=O)CCCCCCCCCCCCCCCCC(=O)O)NC1=O` (stereo partly shown) [Compound 12, Isovaleric Acid-E-T-H-[Dpa]-P-[Cys]-I-[Lys(1Peg2_1Peg2_Ahx_C18_Diacid)]-[bhPhe]-[(D)Lys]-[Cys]-NH2] the EC50 (LAD2 cells) was 12900 nM and the half-life at 20 μM [3] was 1.5 h.

In the case of Isovaleryl-ETH[Dip]PCIK(PEG40KB)[β3hF]K([PEG12-Palmitoyl])RC-NH2 (disulfide 6-12 (inferred)) [Compound 296], the “FPN EC50” value [4] is reported as 1080 nM.

B1: Compound 312 (peptide)
peptide: XETHXPCIXXXC
modifications: Isovaleric Acid-E-T-H-[Dpa]-P-C-I-[Lys(Ahx_Palm)]-[bhPhe]-[(D)Lys(PEG20K)]-C-NH2
With B1 the “FPN EC50” value [4] was 32.6 nM.

B2: Compound 611 (peptide)
peptide: XEXHXPCIXXXXC
modifications: not fully specified; [Isovaleric Acid]-E-S-H-[Dpa]-P-C-I-[(D)Lys]-[aMePhe]-[Lys(PEG12_Palm)]-[(D)Lys]-C-NH2
With B2 the “FPN IC50 (nM), grade: *=>500 nM” value [5] was over 500 nM.

B3: Compound 297 (peptide)
peptide: XETHXPCIXXXC
modifications: Isovaleric Acid-E-T-H-[Dpa]-P-C-I-[Lys(1PEG2_1PEG2_Ahx_C18_Diacid)]-[bhPhe]-[(D)Lys(PEG40KB-C-NH2)
In the case of B3, the “FPN EC50” value [4] is reported as 1360 nM.

In the case of Isovaleryl-ET[Dap][Dip]PCI[dK][β3hF]K([PEG12-Palmitoyl])RC-NH2 (disulfide 6-12 (inferred)) [Compound 603], the “FPN IC50 (nM), grade: *=>500 nM” value [5] is reported as over 500 nM.

B4: Compound 314 (peptide)
peptide: XETHXPCIXXXC
modifications: Isovaleric Acid-E-T-H-[Dpa]-P-C-I-[Lys(1PEG2_1PEG2_Ahx_Palm)]-[bhPhe]-[(D)Lys(PEG20K-C-NH2)
For B4, the “FPN EC50” value [4] was 357 nM.

From patent publication US20230295259A1 (Protagonist Therapeutics, Inc., priority 2020, published 2023)
